The chains are these.
B1: EMD (parent)
chain: YQSKGYNDDYYEESYFTTRTYGEP
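Further: lentivirally expressed fusions sorted by FACS into six bins by GFP to DsRed ratio, PSI derived from sequencing read proportions per bin multiplied by bin number.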

The variants in this series derive from B1. In words: protein stability index of a GFP-peptide fusion (GPS, HEK-293T) (PSI 1-6); higher = more stable. The settings on record: c terminus: a fixed tail appended.
Regarding YQSKGYNDDYYEESYFTTRTYGEW [P24W], the protein stability index came to 1.74.
With YQSKGYNDDYYEESYFTTRTYGEF [P24F], the protein stability index came to 1.57.
On to YQSKGYNDDYYEESYFTTRTYGET [P24T], for which the protein stability index was 1.91.
For YQSKGYNDDYYEESYFTTRTYGES [P24S], the protein stability index is 2.29.
Regarding YQSKGYNDDYYEESYFTTRTYGEH [P24H], the protein stability index came out at 1.97.
Regarding YQSKGYNDDYYEESYFTTRTYGEL [P24L], the protein stability index was determined as 2.1.
For YQSKGYNDDYYEESYFTTRTYGEE [P24E], the protein stability index turned out to be 2.12.
To YQSKGYNDDYYEESYFTTRTYGEG [P24G] belongs 2.51.
As to YQSKGYNDDYYEESYFTTRTYGEV [P24V], the protein stability index amounted to 1.85.
As to YQSKGYNDDYYEESYFTTRTYGEK [P24K], the protein stability index was determined as 2.58.
To YQSKGYNDDYYEESYFTTRTYGEA [P24A] belongs 2.28; to YQSKGYNDDYYEESYFTTRTYGEN [P24N], 2.15; to YQSKGYNDDYYEESYFTTRTYGEY [P24Y], 1.83.
YQSKGYNDDYYEESYFTTRTYGEI [P24I]: the protein stability index amounted to 1.86.
With YQSKGYNDDYYEESYFTTRTYGEQ [P24Q], the protein stability index was 2.52.
Take YQSKGYNDDYYEESYFTTRTYGER [P24R]: the protein stability index was found to be 2.05.
Take YQSKGYNDDYYEESYFTTRTYGEM [P24M]: the protein stability index amounted to 2.28.
YQSKGYNDDYYEESYFTTRTYGEC [P24C]: the protein stability index was determined as 2.48.
Turning to YQSKGYNDDYYEESYFTTRTYGED [P24D], the protein stability index came out at 2.89.
In the case of YQSKGYNDDYYEESYFTTRTYVEP [G22V], the protein stability index was determined as 2.02.
As for YQSKGYNDDYYEESYFTTRTYWEP [G22W], the protein stability index turned out to be 1.93.
Consider YQSKGYNDDYYEESYFTTRTYYEP [G22Y], for which the protein stability index was found to be 1.49.
As for YQSKGYNDDYYEESYFTTRTYCEP [G22C], the protein stability index stood at 1.92.
With YQSKGYNDDYYEESYFTTRTYPEP [G22P], the protein stability index is 2.27.
Consider YQSKGYNDDYYEESYFTTRTYNEP [G22N], for which the protein stability index stood at 2.46.
Take YQSKGYNDDYYEESYFTTRTYQEP [G22Q]: the protein stability index stood at 2.25.
Take YQSKGYNDDYYEESYFTTRTYLEP [G22L]: the protein stability index amounted to 2.01.
Consider YQSKGYNDDYYEESYFTTRTYAEP [G22A], for which the protein stability index stood at 2.1.
Regarding YQSKGYNDDYYEESYFTTRTYEEP [G22E], the protein stability index worked out at 2.76.
Regarding YQSKGYNDDYYEESYFTTRTYTEP [G22T], the protein stability index turned out to be 2.49.
As to YQSKGYNDDYYEESYFTTRTYREP [G22R], the protein stability index came to 2.28.
Then YQSKGYNDDYYEESYFTTRTYMEP [G22M], with 1.96; and YQSKGYNDDYYEESYFTTRTYFEP [G22F], with 1.77.
YQSKGYNDDYYEESYFTTRTYIEP [G22I]: the protein stability index was found to be 2.13.
YQSKGYNDDYYEESYFTTRTYHEP [G22H]: the protein stability index was determined as 2.13.
As for YQSKGYNDDYYEESYFTTRTYDEP [G22D], the protein stability index turned out to be 2.23.
In the case of YQSKGYNDDYYEESYFTTRTYSEP [G22S], the protein stability index came out at 2.07.
Turning to YQSKGYNDDYYEESYFTTRTYKEP [G22K], the protein stability index worked out at 2.85.
Then YQSKGYNDDYYEESYFTTRTYGRP [E23R], with 1.91; and YQSKGYNDDYYEESYFTTRTYGQP [E23Q], with 1.94; and YQSKGYNDDYYEESYFTTRTYGTP [E23T], with 2.24.
Then YQSKGYNDDYYEESYFTTRTYGPP [E23P], with 2.44.
Regarding YQSKGYNDDYYEESYFTTRTYGIP [E23I], the protein stability index amounted to 1.92.
Turning to YQSKGYNDDYYEESYFTTRTYGNP [E23N], the protein stability index came out at 2.42.
With YQSKGYNDDYYEESYFTTRTYGMP [E23M], the protein stability index came out at 1.55.
As for YQSKGYNDDYYEESYFTTRTYGDP [E23D], the protein stability index came out at 2.28.
On to YQSKGYNDDYYEESYFTTRTYGCP [E23C], for which the protein stability index was 2.12.
Turning to YQSKGYNDDYYEESYFTTRTYGGP [E23G], the protein stability index is 2.
Consider YQSKGYNDDYYEESYFTTRTYGKP [E23K], for which the protein stability index was 2.09.
As for YQSKGYNDDYYEESYFTTRTYGHP [E23H], the protein stability index was 2.19.
Regarding YQSKGYNDDYYEESYFTTRTYGFP [E23F], the protein stability index came out at 1.51.
Turning to YQSKGYNDDYYEESYFTTRTYGAP [E23A], the protein stability index worked out at 1.7.
Turning to YQSKGYNDDYYEESYFTTRTYGYP [E23Y], the protein stability index was found to be 1.99.
Turning to YQSKGYNDDYYEESYFTTRTYGLP [E23L], the protein stability index was determined as 2.18.
In the case of YQSKGYNDDYYEESYFTTRTYGSP [E23S], the protein stability index was found to be 2.12.
As to YQSKGYNDDYYEESYFTTRTYGVP [E23V], the protein stability index is 2.48.
Regarding YQSKGYNDDYYEESYFTTRTYGWP [E23W], the protein stability index was found to be 2.35.
To YQSKGYNDDYYEESYFTTYTYGEP [R19Y] belongs 2.52; to YQSKGYNDDYYEESYFTTRTKGEP [Y21K], 2.52.
YQSKGYNDDYYEESYFTTRTDGEP [Y21D]: the protein stability index amounted to 3.06.
Regarding YQSKGYNDDYYEESYFTTRTSGEP [Y21S], the protein stability index stood at 2.77.
For YQSKGYNDDYYEESYFTTRTFGEP [Y21F], the protein stability index turned out to be 2.02.
As for YQSKGYNDDYYEESYFTTRTMGEP [Y21M], the protein stability index worked out at 2.97.
In the case of YQSKGYNDDYYEESYFTTRTTGEP [Y21T], the protein stability index is 2.27.
As for YQSKGYNDDYYEESYFTTRTRGEP [Y21R], the protein stability index came to 2.46.
On to YQSKGYNDDYYEESYFTTRTVGEP [Y21V], for which the protein stability index worked out at 2.93.
As for YQSKGYNDDYYEESYFTTRTIGEP [Y21I], the protein stability index is 2.39.
Then YQSKGYNDDYYEESYFTTRTLGEP [Y21L], with 2.32; and YQSKGYNDDYYEESYFTTRTCGEP [Y21C], with 2.81; and YQSKGYNDDYYEESYFTTRTGGEP [Y21G], with 2.98.
In the case of YQSKGYNDDYYEESYFTTRTAGEP [Y21A], the protein stability index worked out at 2.76.
In the case of YQSKGYNDDYYEESYFTTRTNGEP [Y21N], the protein stability index was determined as 2.68.
Then YQSKGYNDDYYEESYFTTRTPGEP [Y21P], with 2.76; and YQSKGYNDDYYEESYFTTRTQGEP [Y21Q], with 2.53.
Then YQSKGYNDDYYEESYFTTRTWGEP [Y21W], with 1.96; and YQSKGYNDDYYEESYFTTRTEGEP [Y21E], with 3.18; and YQSKGYNDDYYEESYFTTRTHGEP [Y21H], with 2.86.
Take YQSKGYNDDYYEESYFTTRDYGEP [T20D]: the protein stability index was 2.52.
On to YQSKGYNDDYYEESYFTTRCYGEP [T20C], for which the protein stability index amounted to 2.26.
As to YQSKGYNDDYYEESYFTTRFYGEP [T20F], the protein stability index amounted to 2.23.
To YQSKGYNDDYYEESYFTTRGYGEP [T20G] belongs 2.6; to YQSKGYNDDYYEESYFTTRRYGEP [T20R], 2.1.
As for YQSKGYNDDYYEESYFTTRLYGEP [T20L], the protein stability index was 2.4.
Turning to YQSKGYNDDYYEESYFTTRQYGEP [T20Q], the protein stability index stood at 1.86.
Then YQSKGYNDDYYEESYFTTRHYGEP [T20H], with 2.1; and YQSKGYNDDYYEESYFTTRWYGEP [T20W], with 1.46; and YQSKGYNDDYYEESYFTTRSYGEP [T20S], with 2.33.
As for YQSKGYNDDYYEESYFTTRMYGEP [T20M], the protein stability index is 2.29.
As to YQSKGYNDDYYEESYFTTRYYGEP [T20Y], the protein stability index is 1.44.
For YQSKGYNDDYYEESYFTTRAYGEP [T20A], the protein stability index came to 2.15.
YQSKGYNDDYYEESYFTTRIYGEP [T20I]: the protein stability index came out at 1.73.
As to YQSKGYNDDYYEESYFTTRNYGEP [T20N], the protein stability index came to 2.53.
As for YQSKGYNDDYYEESYFTTRKYGEP [T20K], the protein stability index came out at 2.05.
Consider YQSKGYNDDYYEESYFTTREYGEP [T20E], for which the protein stability index is 2.52.

These data come from the supplement of paper PMC10567573.
